Source: patent publication US20190225669A1 (ACCELERON PHARMA, published 2019)
Read-outs that look alike come from different tables or passages of the source.

How the values were obtained:
GDF11 = molecular target: T1, GDF11 (UniProt O95390 299-407); assay: Biacore SPR
T1 construct: also called BMP11
T1 sequence (looked up): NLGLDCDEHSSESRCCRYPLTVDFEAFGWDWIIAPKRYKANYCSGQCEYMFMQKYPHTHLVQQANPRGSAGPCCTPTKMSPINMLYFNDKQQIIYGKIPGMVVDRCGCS
Method: (§1) Ligands were injected and allowed to flow over the captured receptor protein.

GDF8 = molecular target: T2, GDF8 (UniProt O14793 267-375); assay: Biacore SPR
T2 construct: also called myostatin
T2 sequence (looked up): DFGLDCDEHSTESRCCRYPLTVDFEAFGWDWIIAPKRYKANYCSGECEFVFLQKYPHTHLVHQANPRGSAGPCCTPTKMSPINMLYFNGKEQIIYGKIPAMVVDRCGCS
Method: as §1

BMP6 = molecular target: T3, BMP6 (UniProt P22004 382-513, limits assumed); assay: Biacore SPR
T3 sequence (looked up): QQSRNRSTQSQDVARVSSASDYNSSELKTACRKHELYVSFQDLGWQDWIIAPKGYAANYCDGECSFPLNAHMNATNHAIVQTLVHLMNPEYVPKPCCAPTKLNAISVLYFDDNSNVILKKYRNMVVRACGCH
Method: as §1

activin B [1] = molecular target: T4, activin B (UniProt P09529 293-407); assay: Biacore SPR
T4 sequence (looked up): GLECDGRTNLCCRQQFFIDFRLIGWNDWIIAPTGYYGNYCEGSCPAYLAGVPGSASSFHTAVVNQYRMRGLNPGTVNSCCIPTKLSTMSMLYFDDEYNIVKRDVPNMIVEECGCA
Method: as §1

GDF3 = molecular target: T5, GDF3 (UniProt Q9NR23 251-364); assay: Biacore SPR
T5 sequence (looked up): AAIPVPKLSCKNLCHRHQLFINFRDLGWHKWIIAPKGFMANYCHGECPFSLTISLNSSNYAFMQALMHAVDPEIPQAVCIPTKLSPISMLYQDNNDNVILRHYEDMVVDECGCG
Method: as §1

activin A [2] = molecular target: T6, activin A (UniProt P08476 311-426); assay: Biacore SPR
T6 sequence (looked up): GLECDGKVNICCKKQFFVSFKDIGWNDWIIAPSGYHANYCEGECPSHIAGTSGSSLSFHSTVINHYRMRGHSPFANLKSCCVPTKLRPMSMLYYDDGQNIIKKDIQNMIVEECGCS
Method: as §1

BMP10 [3] = molecular target: T7, BMP10 (UniProt O95393 317-424); assay: Biacore SPR
T7 sequence (looked up): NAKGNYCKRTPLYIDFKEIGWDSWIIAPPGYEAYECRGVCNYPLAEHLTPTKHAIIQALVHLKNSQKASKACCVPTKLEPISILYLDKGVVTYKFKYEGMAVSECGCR
Method: as §1

BMP9 = molecular target: T8, BMP9 (UniProt Q9UK05 320-429); assay: Biacore SPR; kinetics indeterminate (transient)
T8 construct: also called GDF2
T8 sequence (looked up): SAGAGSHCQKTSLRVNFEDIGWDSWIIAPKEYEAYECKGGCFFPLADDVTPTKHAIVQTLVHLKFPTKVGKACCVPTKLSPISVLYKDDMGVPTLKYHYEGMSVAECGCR
Method: as §1

activin AB = molecular target: T9, activin AB (UniProt P08476 311-426; P09529 293-407); assay: Biacore SPR
T9 sequence (looked up) 1: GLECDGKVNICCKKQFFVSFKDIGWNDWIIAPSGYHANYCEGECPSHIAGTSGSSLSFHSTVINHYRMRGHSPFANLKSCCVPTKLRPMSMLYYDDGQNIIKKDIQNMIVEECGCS
T9 sequence (looked up) 2: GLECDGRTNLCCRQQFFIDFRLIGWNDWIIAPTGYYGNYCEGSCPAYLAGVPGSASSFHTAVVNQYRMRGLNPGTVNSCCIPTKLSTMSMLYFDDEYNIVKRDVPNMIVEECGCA
Method: as §1

activin B [4] = molecular target: T4, activin B; assay: Biacore SPR; remark: listed apart in the source
Method: as §1

activin A [5] = molecular target: T6, activin A; assay: Biacore SPR; remark: listed apart in the source
Method: as §1

BMP10 [6] = molecular target: T7, BMP10; assay: Biacore SPR; remark: listed apart in the source
Method: as §1

BMP15 = molecular target: T10, BMP15 (UniProt O95972 268-392); assay: Biacore SPR
T10 construct: also called GDF9b
T10 sequence (looked up): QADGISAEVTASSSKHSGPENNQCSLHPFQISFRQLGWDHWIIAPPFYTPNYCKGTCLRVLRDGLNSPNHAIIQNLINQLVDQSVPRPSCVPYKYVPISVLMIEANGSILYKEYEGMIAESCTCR
Method: as §1

B1: ActRIIB-Fc:ALK4-Fc heterodimer (Fc fusion)
chain 1: GRGEAETRECIYYNANWELERTNQSGLERCEGEQDKRLHCYASWRNSSGTIELVKKGCWLDDFNCYDRQECVATEENPQVYFCCCEGNFCNERFTHLPEAGGPEVTYEPPPTAPTGGGTHTCPPCPAPELLGGPSVFLFPPKPKDTLMISRTPEVTCVVVDVSHEDPEVKFNWYVDGVEVHNAKTKPREEQYNSTYRVVSVLTVLHQDWLNGKEYKCKVSNKALPAPIEKTISKAKGQPREPQVYTLPPSRKEMTKNQVSLTCLVKGFYPSDIAVEWESNGQPENNYKTTPPVLKSDGSFFLYSKLTVDKSRWQQGNVFSCSVMHEALHNHYTQKSLSLSPGK
chain 2: SGPRGVQALLCACTSCLQANYTCETDGACMVSIFNLDGMEHHVRTCIPKVELVPAGKPFYCLSSEDLRNTHCCYTDYCNRIDLRVPSGHLKEPEHPSMWGPVETGGGTHTCPPCPAPELLGGPSVFLFPPKPKDTLMISRTPEVTCVVVDVSHEDPEVKFNWYVDGVEVHNAKTKPREEQYNSTYRVVSVLTVLHQDWLNGKEYKCKVSNKALPAPIEKTISKAKGQPREPQVYTLPPSREEMTKNQVSLTCLVKGFYPSDIAVEWESNGQPENNYDTTPPVLDSDGSFFLYSDLTVDKSRWQQGNVFSCSVMHEALHNHYTQKSLSLSPG
notes: C-terminal Lys optional; also called ActRIIB-Fc:ALK4-Fc heterodimeric complex; ActRIIB-Fc:ALK4-Fc heteromeric complex
Binder B1 has a Kd (GDF11) of 0.003 nM, a koff (GDF11) of 0.00011 s⁻¹ and a kon (GDF11) of 3.8e+07 M⁻¹ s⁻¹. It also gave a Kd (GDF8) of 0.55 nM, a koff (GDF8) of 0.00021 s⁻¹ and a kon (GDF8) of 390000 M⁻¹ s⁻¹. The Kd (BMP6) was 2.7 nM, the koff (BMP6) was 0.0055 s⁻¹ and the kon (BMP6) was 2e+06 M⁻¹ s⁻¹. It also gave a Kd (activin B [1]) of 0.006 nM, a koff (activin B [1]) of 4e-05 s⁻¹ and a kon (activin B [1]) of 7.1e+06 M⁻¹ s⁻¹. For the same binder, the Kd (GDF3) was 4.9 nM, the koff (GDF3) was 0.017 s⁻¹ and the kon (GDF3) was 3.4e+06 M⁻¹ s⁻¹. For the same binder, the Kd (activin A [2]) was 0.012 nM, the koff (activin A [2]) was 0.00015 s⁻¹ and the kon (activin A [2]) was 1.3e+07 M⁻¹ s⁻¹. The Kd (BMP10 [3]) was 0.074 nM, the koff (BMP10 [3]) was 0.0041 s⁻¹ and the kon (BMP10 [3]) was 5.6e+07 M⁻¹ s⁻¹. It also gave a Kd (BMP9) of 3.4 nM.

B2: BMPRII-Fc:ALK4-Fc heterodimer (Fc fusion)
chain 1: SQNQERLCAFKDPYQQDLGIGESRISHENGTILCSKGSTCYGLWEKSKGDINLVKQGCWSHIGDPQECHYEECVVTTTPPSIQNGTYRFCCCSTDLCNVNFTENFPPPDTTPLSPPHSFNRDETGGGTHTCPPCPAPELLGGPSVFLFPPKPKDTLMISRTPEVTCVVVDVSHEDPEVKFNWYVDGVEVHNAKTKPREEQYNSTYRVVSVLTVLHQDWLNGKEYKCKVSNKALPAPIEKTISKAKGQPREPQVYTLPPSRKEMTKNQVSLTCLVKGFYPSDIAVEWESNGQPENNYKTTPPVLKSDGSFFLYSKLTVDKSRWQQGNVFSCSVMHEALHNHYTQKSLSLSPGK
chain 2: SGPRGVQALLCACTSCLQANYTCETDGACMVSIFNLDGMEHHVRTCIPKVELVPAGKPFYCLSSEDLRNTHCCYTDYCNRIDLRVPSGHLKEPEHPSMWGPVETGGGTHTCPPCPAPELLGGPSVFLFPPKPKDTLMISRTPEVTCVVVDVSHEDPEVKFNWYVDGVEVHNAKTKPREEQYNSTYRVVSVLTVLHQDWLNGKEYKCKVSNKALPAPIEKTISKAKGQPREPQVYTLPPSREEMTKNQVSLTCLVKGFYPSDIAVEWESNGQPENNYDTTPPVLDSDGSFFLYSDLTVDKSRWQQGNVFSCSVMHEALHNHYTQKSLSLSPG
notes: C-terminal Lys optional; also called BMPRII-Fc:ALK4-Fc heterodimeric complex
In the case of B2, the Kd (BMP9) is reported as > 140 nM, the Kd (activin AB) is reported as 0.14 nM and the koff (activin AB) is reported as 0.0005 s⁻¹. It also gave a kon (activin AB) of 3.6e+06 M⁻¹ s⁻¹, a Kd (activin B [4]) of 1.7 nM and a koff (activin B [4]) of 0.0026 s⁻¹. The kon (activin B [4]) was 1.6e+06 M⁻¹ s⁻¹, the Kd (activin A [5]) was 1.1 nM and the koff (activin A [5]) was 0.0022 s⁻¹. It also gave a kon (activin A [5]) of 2e+06 M⁻¹ s⁻¹, a Kd (BMP10 [6]) of 2.2 nM and a koff (BMP10 [6]) of 0.0018 s⁻¹. The kon (BMP10 [6]) was 800000 M⁻¹ s⁻¹, the Kd (BMP15) was 1.7 nM and the koff (BMP15) was 0.048 s⁻¹. It also gave a kon (BMP15) of 2.8e+07 M⁻¹ s⁻¹.
